The subject of this experiment is TGF-β1 activation. The experiment in a line: Macrophage activation assay (IC-21 macrophages, LPS, fetal fibroblast conditioned media, ELISA). In kind it is cell-based, mouse. The procedure:
Cultured macrophages were lifted from the dish with 3 ml of PBS. The PBS was balanced with 15 ml of RPMI-1640 containing 10% FBS. The cells were counted and then seeded in 100 mm plates at 1×10^6 cells/dish. When the cultured macrophages reached approximately 70% confluency (2-3 days) they were washed with PBS and RPMI-1640 medium containing 5% FBS and 10 ng/ml LPS was applied (FIG. 1). After 24 h of activation with LPS the cells were washed gently with PBS. At this point conditioned medium from confluent fetal dermal fibroblasts was collected and 5 ml was distributed into each dish containing macrophages. The cells were incubated for an additional 24 h, the media were collected, spun down at 600×g for 10 min and stored at 4° C. before TGF-β1 evaluation by ELISA. Each condition was done in duplicate. The cells, washed with PBS, were harvested for total RNA extraction.
Fetal dermal fibroblasts were seeded in 100 mm dishes at 1×10^6 cell/dish. The cells were grown to confluency (2-3 days). The cultures were washed with PBS and fresh medium, either DMEM supplemented with 10% FBS or AIM-V medium (a serum free medium) for serum-free conditions, was applied for 24 h (FIG. 1). The medium was collected and combined in order to obtain a homogenous pool of latent TGF-β1. The collection of the medium was done just prior to application in the macrophage assay. […]
On the technique in general: ELISA stands for enzyme-linked immunosorbent assay.

B1: IGFBP-1: Purified rat Insulin-like Growth Factor Binding Protein 1 (protein, UniProt P21743 26-272, looked up)
Insulin-like growth …: APQPWHCAPCTAERLELCPPVPASCPEISRPAGCGCCPTCALPLGAACGVATARCAQGLSCRALPGEPRPLHALTRGQGACVLEPAAPATSSLSGSQHEEAKAAVASEDELAESPEMTEEQLLDSFHLMAPSREDQPILWNAISTYSSMRAREITDLKKWKEPCQRELYKVLERLAAAQQKAGDEIYKFYLPNCNKNGFYHSKQCETSLDGEAGLCWCVYPWSGKKIPGSLETRGDPNCHQYFNVQN
Regarding B1, the “effect on IGF-II-mediated inhibition of TGF-β1 activation, in words” value was “able to reverse this inhibition”.

B2: IGFBP-2: Purified rat Insulin-like Growth Factor Binding Protein 2 (protein, UniProt P12843 35-304, looked up)
Insulin-like growth …: EVLFRCPPCTPERLAACGPPPDAPCAELVREPGCGCCSVCARQEGEACGVYIPRCAQTLRCYPNPGSELPLKALVTGAGTCEKRRVGATPQQVADSEDDHSEGGLVENHVDGTMNMLGGSSAGRKPPKSGMKELAVFREKVNEQHRQMGKGAKHLSLEEPKKLRPPPARTPCQQELDQVLERISTMRLPDDRGPLEHLYSLHIPNCDKHGLYNLKQCKMSLNGQRGECWCVNPNTGKPIQGAPTIRGDPECHLFYNEQQENDGAHAQRVQ
Turning to B2, the “effect on IGF-II-mediated inhibition of TGF-β1 activation, in words” value is on record as “no effect on IGF-II action”.
